Results published in publication PMC4341239, “High yield purification of full-length functional hERG K^+ channels produced in Saccharomyces cerevisiae” (Microbial Cell Factories, 2015).

Molecular target: the molecule itself
Test: SEC; fluorescence size exclusion chromatography (FSEC) on Superose 6 10/300 GL; crude membranes solubilized in FC-12 with cholesteryl-hemisuccinate, with 1 uM Astemizole; FSEC buffer 20 mM TRIS-HCl, 0.15 M NaCl, 0.03% DDM; mass by MW standards, amount of detergent in the complex unknown

B1: hERG-TEV-GFP-His 8 fusion protein (full-length hERG alpha-subunit, Kv11.1) (natural protein, human, UniProt Q12809 1-1159, looked up)
chain: MPVRRGHVAPQNTFLDTIIRKFEGQSRKFIIANARVENCAVIYCNDGFCELCGYSRAEVMQRPCTCDFLHGPRTQRRAAAQIAQALLGAEERKVEIAFYRKDGSCFLCLVDVVPVKNEDGAVIMFILNFEVVMEKDMVGSPAHDTNHRGPPTSWLAPGRAKTFRLKLPALLALTARESSVRSGGAGGAGAPGAVVVDVDLTPAAPSSESLALDEVTAMDNHVAGLGPAEERRALVGPGSPPRSAPGQLPSPRAHSLNPDASGSSCSLARTRSRESCASVRRASSADDIEAMRAGVLPPPPRHASTGAMHPLRSGLLNSTSDSDLVRYRTISKIPQITLNFVDLKGDPFLASPTSDREIIAPKIKERTHNVTEKVTQVLSLGADVLPEYKLQAPRIHRWTILHYSPFKAVWDWLILLLVIYTAVFTPYSAAFLLKETEEGPPATECGYACQPLAVVDLIVDIMFIVDILINFRTTYVNANEEVVSHPGRIAVHYFKGWFLIDMVAAIPFDLLIFGSGSEELIGLLKTARLLRLVRVARKLDRYSEYGAAVLFLLMCTFALIAHWLACIWYAIGNMEQPHMDSRIGWLHNLGDQIGKPYNSSGLGGPSIKDKYVTALYFTFSSLTSVGFGNVSPNTNSEKIFSICVMLIGSLMYASIFGNVSAIIQRLYSGTARYHTQMLRVREFIRFHQIPNPLRQRLEEYFQHAWSYTNGIDMNAVLKGFPECLQADICLHLNRSLLQHCKPFRGATKGCLRALAMKFKTTHAPPGDTLVHAGDLLTALYFISRGSIEILRGDVVVAILGKNDIFGEPLNLYARPGKSNGDVRALTYCDLHKIHRDDLLEVLDMYPEFSDHFWSSLEITFNLRDTNMIPGSPGSTELEGGFSRQRKRKLSFRRRTDKDTEQPGEVSALGPGRAGAGPSSRGRPGGPWGESPSSGPSSPESSEDEGPGRSSSPLRLVPFSSPRPPGEPPGGEPLMEDCEKSSDTCNPLSGAFSGVSNIFSFWGDSRGRQYQELPRCPAPTPSLLNIPLSSPGRRPRGDVESRLDALQRQLNRLETRLSADMATVLQLLQRQMTLVPPAYSAVTTPGPGPTSTSPLLPVSPLPTLTLDSLSQVSQFMACEELPPGAPELPQEGPTRRLSLPGQLGALTSQPLHRHGSDPGS
modifications: N-glycosylated in S. cerevisiae
notes: the fusion is 156 kDa; also called hERG-GFP-His 8; hERG-GFP; source: S. cerevisiae strain PAP1500, induced at 15°C; crude membranes solubilized in FC-12 with cholesteryl-hemisuccinate; not shown: GFP (yEGFP, after a TEV cleavage site), C-terminal, kept; His8, C-terminal, kept
B1 was tested, and the “stoichiometry N” value was 4.
